To fix the notation:
B1: AB-007034 (antibody, V domains shown)
VH: QVQLVESGGGVVQPGRSLRLSCAASGFTFSTYAMHWVRQAPGQGLEWVAVISYHSTNKYYADSVRGRFTISRDNSKNTLYLQMNSLRAEDTAVYYCARDGYSSSFFDFWGQGTLVTVSS
VL: DIQMTQSPSTLSASVGDRVTITCRASQSISRWLAWYQQQPGKAPKLLISGASVLESGVPSRFSGSGSGTEFTLTISSLQPDDFATYYCQHYNSYFVTFGQGTKVEIK
B2: AB-007039 (antibody, V domains shown)
VH: B1 VH with V2M, A23T, A40S, E46Q, A61E
VL: B1 VL with T20A, I48M, F95S
B3: AB-007051 (antibody, V domains shown)
VH: B1 VH with V2M, A23T, A40S, E46Q, T56R, A61E
VL: B1 VL with T20A, I48M
B4: AB-007057 (antibody, V domains shown)
VH: B1 VH with V2M, A23T, A40S, E46Q, A61E, S102H
VL: B1 VL with T20A, I48M
B5: AB-007042 (antibody, V domains shown)
VH: B1 VH with V2M, A23T, A40S, E46Q, A61E
VL: B1 VL with T20A, S28D, I48M
B6: AB-007054 (antibody, V domains shown)
VH: B1 VH with V2M, A23T, A40S, E46Q, A61E, S102A
VL: B1 VL with T20A, I48M
B7: AB-007038 (antibody, V domains shown)
VH: B1 VH with V2M, A23T, A40S, E46Q, A61E, F108Y
VL: B1 VL with T20A, I48M
B8: AB-007049 (antibody, V domains shown)
VH: B1 VH with V2M, A23T, A40S, E46Q, Y53N, S55E, A61E
VL: B1 VL with T20A, I48M
B9: AB-007041 (antibody, V domains shown)
VH: B1 VH with V2M, A23T, T31D, A40S, E46Q, A61E
VL: B1 VL with T20A, I48M
B10: AB-007037 (antibody, V domains shown)
VH: B1 VH with V2M, A23T, A40S, E46Q, A61E, R65K
VL: B1 VL with T20A, I48M
B11: AB-007035 (antibody, V domains shown)
VH: B1 VH with V2M, A23T, T31S, A40S, E46Q, A61E
VL: B1 VL with T20A, I48M
B12: AB-007040 (antibody, V domains shown)
VH: B1 VH with V2M, A23T, A40S, E46Q, A61E
VL: B1 VL with T20A, I48M, F95Y
B13: AB-007036 (antibody, V domains shown)
VH: B1 VH with V2M, A23T, A40S, E46Q, H54D, A61E
VL: B1 VL with T20A, I48M
B14: AB-007052 (antibody, V domains shown)
VH: B1 VH with V2M, A23T, A40S, E46Q, T56N, A61E
VL: B1 VL with T20A, I48M
B15: AB-007046 (antibody, V domains shown)
VH: B1 VH with V2M, A23T, A40S, E46Q, A61E
VL: B1 VL with T20A, I48M, N92Y
B16: AB-007044 (antibody, V domains shown)
VH: B1 VH with V2M, A23T, A40S, E46Q, A61E, D62E
VL: B1 VL with T20A, I48M
B17: AB-007047 (antibody, V domains shown)
VH: B1 VH with V2M, A23T, T31N, A40S, E46Q, A61E
VL: B1 VL with T20A, I48M
B18: AB-007043 (antibody, V domains shown)
VH: B1 VH with V2M, A23T, A40S, E46Q, A61E
VL: B1 VL with T20A, I48M, S56D

From US20220195023A1 come the findings set out here.

Numbering of substitutions follows the chain as printed.

In one assay the target is (NANP)6 (Plasmodium falciparum). As to the kind of experiment: BLI, target on sensor. In general terms: Biolayer interferometry detects binding as a change in optical thickness at a sensor tip.
One may read the Kd as the equilibrium constant for the complex coming apart. The molecule B1 returned a dissociation constant Kd of 0.0899 nM. In other words, the picomolar range.
As for B2, the dissociation constant (Kd) was found to be 1.19 nM. Compared with the last molecule, the Kd is about 13-fold higher.
The molecule B3 registered a Kd of 1.08 nM.
As to B4, the Kd was determined as 0.976 nM.
The same measure, in the same setting: under B5 stands 0.0276 nM.
On the same count and under the same terms, under B6 stands 1.72 nM; under B7, 1.34 nM.
As for B8, the dissociation constant (Kd) worked out at 0.576 nM.
The same measure, in the same setting: for B9 the value was 0.47 nM; for B10, 0.384 nM; for B11, 0.927 nM.
For the molecule B12, the Kd amounted to 0.56 nM.
On the same count and under the same terms, under B13 stands 0.226 nM.
Still for that read-out and setting: under B14 stands 0.392 nM; under B15, 2.58 nM.
Molecule B16 registered a Kd of 0.85 nM.
On the same count and under the same terms, under B17 stands 1.32 nM.
Turning to B18, the dissociation constant (Kd) was found to be 0.293 nM.

The next assay has as its target (NPNA)3 (Plasmodium falciparum). The assay is described as follows: BLI, target on sensor.
Consider B1, for which the Kd came out at 0.00372 nM.
Still for that read-out and setting: for B2 the value was 0.812 nM; for B3, 0.591 nM; for B4, 0.311 nM.
Same read-out and setting: for B5 the value was 0.00314 nM; for B6, 0.61 nM.
With B7, the dissociation constant Kd was found to be 0.544 nM. This Kd and that of the molecule before are within 1.5-fold of each other.
Same read-out and setting: under B8 stands 0.326 nM; under B9, 0.145 nM.
Molecule B10 gave a dissociation constant (Kd) of 0.0035 nM.
Regarding B11, the Kd was 0.322 nM.
In the case of B12, the dissociation constant Kd was 0.337 nM. The Kd values of the last two molecules are within 1.5-fold of each other.
In turn, B13 yielded a dissociation constant (Kd) of 0.00382 nM. Against the preceding molecule, the Kd is about 88-fold lower.
For the molecule B14, the Kd came to 0.0169 nM.
Regarding B15, the Kd amounted to 1.57 nM.
Still for that read-out and setting: under B16 stands 0.239 nM; under B17, 0.567 nM; under B18, 0.00341 nM.

For the next assay, the target named is (NVDP)3(NANP)2 (Plasmodium falciparum). The assay is described as follows: BLI, target on sensor.
As for B1, the dissociation constant Kd stood at 6.14 nM.
Same read-out and setting: for B2 the value was 7.26 nM; for B3, 4.89 nM; for B4, 11.2 nM.
Still for that read-out and setting: under B5 stands 3.9 nM; under B6, 10.2 nM.
The same measure, in the same setting: under B7 stands 5.82 nM; under B8, 13 nM; under B9, 6.65 nM.
In turn, B10 showed a Kd of 4.44 nM.
Same read-out and setting: for B11 the value was 5.09 nM; for B12, 4.67 nM; for B13, 17.4 nM.
The same measure, in the same setting: for B14 the value was 6.28 nM.
Molecule B15 displayed a Kd of 11.6 nM.
The same measure, in the same setting: for B16 the value was 5.99 nM; for B17, 8.11 nM.
Molecule B18 had a dissociation constant (Kd) of 5.2 nM. This Kd lies about 1.6-fold lower than the previous one.

Another assay deals with NANPNVDP (Plasmodium falciparum). The assay is described as follows: BLI, target on sensor.
B1 came in with a dissociation constant (Kd) of 11.5 nM.
In turn, B2 showed an equilibrium dissociation constant (Kd) of 15.3 nM. This Kd and that of the molecule before are within 1.5-fold of each other.
On to B3, for which the dissociation constant (Kd) was determined as 6.57 nM.
On the same count and under the same terms, for B4 the value was 15.3 nM; for B5, 8.56 nM; for B6, 13.7 nM.
With B7, the Kd was 10.9 nM.
The same measure, in the same setting: for B8 the value was 21.2 nM; for B9, 12.1 nM; for B10, 8.41 nM.
Same read-out and setting: for B11 the value was 9.28 nM; for B12, 9.56 nM.
Molecule B13 gave a dissociation constant Kd of 29.6 nM.
On to B14, for which the Kd is 7.34 nM. Compared with the last molecule, the Kd is about 4-fold lower.
The same measure, in the same setting: under B15 stands 11.1 nM; under B16, 8.61 nM.
Still for that read-out and setting: for B17 the value was 10 nM; for B18, 10.4 nM.

The next assay has as its target … (Plasmodium falciparum). As to the kind of experiment: BLI, target on sensor.
In the case of B1, the Kd is 5.44 nM.
Same read-out and setting: for B2 the value was 7.97 nM; for B3, 3.23 nM; for B4, 10.5 nM.
The molecule B5 came in with a Kd of 2.99 nM. Against the preceding molecule, the Kd is about 3.5-fold lower.
The molecule B6 displayed an equilibrium dissociation constant (Kd) of 8.5 nM.
On the same count and under the same terms, for B7 the value was 3.81 nM; for B8, 12.3 nM; for B9, 5.57 nM.
Still for that read-out and setting: under B10 stands 2.47 nM; under B11, 2.61 nM.
On the same count and under the same terms, for B12 the value was 4.17 nM.
Regarding B13, the dissociation constant (Kd) stood at 16.9 nM. This Kd is about 4.1-fold higher than that of the molecule before.
On the same count and under the same terms, under B14 stands 3.83 nM.
As to B15, the Kd came out at 9.15 nM.
On the same count and under the same terms, under B16 stands 3.47 nM; under B17, 5.43 nM; under B18, 4.87 nM.

For another assay, the target named is (NANP)6 (Plasmodium falciparum). As to the kind of experiment: SPR, antibody on chip. A general note: SPR reads the build-up and loss of mass on a sensor chip optically.
In turn, B1 displayed a Kd of 0.932 nM.
On the same count and under the same terms, under B2 stands 0.143 nM; under B3, 0.507 nM; under B4, 0.0419 nM.
As for B5, the equilibrium dissociation constant (Kd) was 0.998 nM. This Kd lies about 24-fold higher than the previous one.
B6 returned a Kd of 0.0552 nM.
The same measure, in the same setting: under B7 stands 0.0281 nM; under B8, 0.092 nM; under B9, 0.246 nM.
B10: the Kd came to 1.73 nM. This Kd is about 7-fold higher than that of the molecule before.
Consider B11, for which the dissociation constant (Kd) was found to be 0.757 nM.
In turn, B12 gave a Kd of 0.344 nM.
The molecule B13 showed a dissociation constant Kd of 0.0466 nM.
Still for that read-out and setting: under B14 stands 0.0442 nM.
Still for that read-out and setting: for B15 the value was 1.27 nM; for B16, 0.139 nM; for B17, 0.156 nM.
Same read-out and setting: for B18 the value was 1.11 nM.

In the next assay the target is (NPNA)3 (Plasmodium falciparum). The assay is described as follows: SPR, antibody on chip.
With B1, the dissociation constant Kd was determined as 17 nM. This counts as double-digit nanomolar.
In turn, B2 had a Kd of 112 nM.
As for B3, the equilibrium dissociation constant (Kd) turned out to be 5.19 nM.
Same read-out and setting: for B4 the value was 40.3 nM.
Molecule B5 registered a Kd of 7.04 nM. This Kd is about 5.7-fold lower than that of the molecule before.
B6 came in with a Kd of 10.5 nM.
Regarding B7, the Kd amounted to 8.97 nM.
For the molecule B8, the Kd turned out to be 25.8 nM.
For B9, the Kd came to 5.64 nM.
Still for that read-out and setting: under B10 stands 7.14 nM; under B11, 5.73 nM; under B12, 9.5 nM.
The same measure, in the same setting: for B13 the value was 33.5 nM; for B14, 6.31 nM.
In turn, B15 showed a Kd of 10.3 nM.
With B16, the Kd amounted to 7.96 nM.
B17 came in with a dissociation constant Kd of 11.4 nM.
Still for that read-out and setting: for B18 the value was 7.51 nM.

Another assay concerns the target (NVDP)3(NANP)2 (Plasmodium falciparum). The assay is described as follows: SPR, antibody on chip.
The molecule B1 had a Kd of 6710 nM.
With B2, the dissociation constant Kd amounted to 8250 nM.
Take B3: the Kd worked out at 2490 nM. This Kd is about 3.3-fold lower than that of the molecule before.
Same read-out and setting: under B4 stands 9090 nM; under B5, 2310 nM; under B6, 5670 nM.
B7 yielded a Kd of 3060 nM.
Still for that read-out and setting: under B8 stands 7140 nM; under B9, 3930 nM; under B10, 2690 nM.
Same read-out and setting: under B11 stands 2690 nM; under B12, 3110 nM.
Still for that read-out and setting: under B13 stands 16700 nM.
As for B14, the Kd was found to be 2560 nM.
On the same count and under the same terms, for B15 the value was 2810 nM.
Same read-out and setting: for B16 the value was 2240 nM; for B17, 3680 nM; for B18, 2590 nM.

For another assay, the target named is … (Plasmodium falciparum). As to the kind of experiment: SPR, antibody on chip.
For B1, the dissociation constant (Kd) was 24100 nM.
The same measure, in the same setting: for B2 the value was 14700 nM.
B3 registered an equilibrium dissociation constant (Kd) of 8840 nM.
On the same count and under the same terms, for B4 the value was 20100 nM; for B5, 11700 nM.
Still for that read-out and setting: under B6 stands 17600 nM.
Regarding B7, the Kd was determined as 13100 nM.
B8 yielded a Kd of 2950 nM.
On to B9, for which the equilibrium dissociation constant (Kd) was found to be 2520 nM. The Kd values of the last two molecules are within 1.5-fold of each other.
On to B10, for which the dissociation constant (Kd) amounted to 2240 nM.
On the same count and under the same terms, for B11 the value was 9750 nM; for B12, 3730 nM.
On the same count and under the same terms, for B13 the value was 17500 nM; for B14, 7140 nM.
The molecule B15 had a dissociation constant Kd of 11600 nM.
B16 had a Kd of 12700 nM.
Same read-out and setting: for B17 the value was 9370 nM.
B18: the Kd came to 16300 nM.
